Assay [1] has as its target T1, 带His标签的人凝血酶 (human, UniProt P00734 328-622). Description: ELISA, biotinylated His-tagged human thrombin on streptavidin plate. In general terms: An ELISA detects its analyte on a solid surface through an enzyme-linked reagent.
Assay [2] concerns the target T1, 带His标签的人凝血酶. Briefly: BIAcore SPR, antibody captured by anti-human capture antibody on CM5 chip, His-tagged thrombin in flow. (Surface plasmon resonance follows binding to a sensor surface in real time, without labels.)
Another assay addresses T2, 带His标签的人凝血酶原 (human, UniProt P00734 44-622).
T2 construct: Zymogen precursor of thrombin, expressed in HEK293E; also called h-prothrombin-his; 人Pro凝血酶
Description: BIAcore SPR, antibody captured by anti-human capture antibody on CM5 chip, His-tagged prothrombin in flow.

Our source for the EC50 and Kd values is patent CN107043423A (JIANGSU HENGRUI MEDICINE CO; SHANGHAI HENGRUI …, dated 2017).

B1: 人源化抗体H1512-8 (antibody, human IgG4 S228P, kappa, V domains shown)
VH: EVQLVESGGGLVQPGGSLRLSCAASGFTVSNYDMSWVRQAPGKGLEWVSMIETDGSIFHASWVNGRFTISRDNSKNTLYLQMNSLRAEDTAVYYCARGSNDYDAYGYPYFTLWGQGTLVTVSS
VL: ELVLTQSSSASASLGSSVKLTCTLSSAHETYTIDWYQQQPGKAPRYLMELKSDGSYNKGAGVPDRFSGSSSGADRYLTISNLQLEDEATYHCGADFSDGYVFGGGTKVEIKR
notes: Humanized antibody
B1 returned an EC50 in the assay with 带His标签的人凝血酶 [1] of 19.3 nM. This lies in the double-digit nanomolar range.

B2: 人源化抗体H1512-12 (antibody, human IgG4 S228P, kappa, V domains shown)
VH: EVQLVESGGGLVQPGGSLRLSCAASGFTVSNYDMSWVRQAPGKGLEWIGMIETDGSIFHASWVNGRFTISKDNSKNTVYLQMNSLRAEDTAVYFCVRGSNDYDAYGYPYFTLWGQGTLVTVSS
VL: QLVLTQSSSASASLGSSVKLTCTLSSAHETYTIDWYQQQPGKAPRYLMELKSDGSYNKGAGVPDRFSGSSSGADRYLTISNLQLEDEATYHCGADFSDGYVFGGGTKVEIKR
notes: Humanized antibody; also called 抗凝血酶抗体H1512-12
Molecule B2 gave an EC50 with 带His标签的人凝血酶 [1] of 0.16 nM. The equilibrium dissociation constant (Kd) with 带His标签的人凝血酶 [2] is 2.79 nM; with 带His标签的人凝血酶原 it was 26.4 nM.

B3: 人源化抗体H1512-1 (antibody, human IgG4 S228P, kappa, V domains shown)
VH: EVQLVESGGGLVQPGGSLRLSCAASGFTVSNYDMSWVRQAPGKGLEWVSMIETDGSIFHASWVNGRFTISRDNSKNTLYLQMNSLRAEDTAVYYCARGSNDYDAYGYPYFTLWGQGTLVTVSS
VL: QPVLTQSSSASASLGSSVKLTCTLSSAHETYTIDWHQQQPGKAPRYLMKLKSDGSYNKGAGVPDRFSGSSSGADRYLTISNLQLEDEADYYCGADFSDGYVFGGGTKVEIKR
notes: Humanized antibody
In the assay with 带His标签的人凝血酶 [1], B3 came in with an EC50 of 43.4 nM.

For orientation: EC50 means the concentration that produces a half-maximal response. For orientation: Kd means the free concentration of one partner at which half of the binding sites on the other are occupied at equilibrium, for simple one-to-one binding. A higher Kd goes with a looser complex.
